Data reported in paper PMC4538837, “Structural basis for substrate recognition and processive cleavage mechanisms of the trimeric exonuclease PhoExo I”.

Molecular target: PhoExo I D80N (Pyrococcus horikoshii OT3, UniProt A0A060P168 1-229, D80N)
Assay: X-ray crystal structure (1.95 A); Mg2+ (soaked), one at A metal site; EMSA: 25 mM Hepes-NaOH pH 7.5, 50 mM NaCl, 0.1 mM EDTA, 0.1 mg/ml BSA, 5 nM probe, 0-1600 nM trimer, 5 min 55 C, then 0.05% glutaraldehyde 10 min at room temperature; 7.5% native PAGE in TBE
Conditions: protein: recombinant; tags: C-terminal 4xHis (mutants made from the CHis plasmid; crystal construct not detailed in the material); chain copies: 3; single strand; 3 copies per trimer

Chain of PhoExo I D80N (A0A060P168 entry or part of it D80N | D80N D80N): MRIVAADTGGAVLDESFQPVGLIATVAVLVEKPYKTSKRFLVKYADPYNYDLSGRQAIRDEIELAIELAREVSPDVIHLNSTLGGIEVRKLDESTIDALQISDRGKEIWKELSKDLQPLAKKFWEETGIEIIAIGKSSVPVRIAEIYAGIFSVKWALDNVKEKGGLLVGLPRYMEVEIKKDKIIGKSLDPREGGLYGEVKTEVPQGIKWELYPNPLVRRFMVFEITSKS

## TTTTTTT (ssDNA) [poly-dT 7 nt]
  binding result: binds
